Results reported in doi:10.1101/2020.09.06.285171.

Biological target: EGFP-MYO10-MYO7B chimeric myosin (Bos taurus (Bt) | human (Hs)) (UniProt P79114)
Experiment: in-cell filopodial tip enrichment assay with a chimeric myosin

Sequence of UniProt P79114 (P79114 whole entry, change not shown): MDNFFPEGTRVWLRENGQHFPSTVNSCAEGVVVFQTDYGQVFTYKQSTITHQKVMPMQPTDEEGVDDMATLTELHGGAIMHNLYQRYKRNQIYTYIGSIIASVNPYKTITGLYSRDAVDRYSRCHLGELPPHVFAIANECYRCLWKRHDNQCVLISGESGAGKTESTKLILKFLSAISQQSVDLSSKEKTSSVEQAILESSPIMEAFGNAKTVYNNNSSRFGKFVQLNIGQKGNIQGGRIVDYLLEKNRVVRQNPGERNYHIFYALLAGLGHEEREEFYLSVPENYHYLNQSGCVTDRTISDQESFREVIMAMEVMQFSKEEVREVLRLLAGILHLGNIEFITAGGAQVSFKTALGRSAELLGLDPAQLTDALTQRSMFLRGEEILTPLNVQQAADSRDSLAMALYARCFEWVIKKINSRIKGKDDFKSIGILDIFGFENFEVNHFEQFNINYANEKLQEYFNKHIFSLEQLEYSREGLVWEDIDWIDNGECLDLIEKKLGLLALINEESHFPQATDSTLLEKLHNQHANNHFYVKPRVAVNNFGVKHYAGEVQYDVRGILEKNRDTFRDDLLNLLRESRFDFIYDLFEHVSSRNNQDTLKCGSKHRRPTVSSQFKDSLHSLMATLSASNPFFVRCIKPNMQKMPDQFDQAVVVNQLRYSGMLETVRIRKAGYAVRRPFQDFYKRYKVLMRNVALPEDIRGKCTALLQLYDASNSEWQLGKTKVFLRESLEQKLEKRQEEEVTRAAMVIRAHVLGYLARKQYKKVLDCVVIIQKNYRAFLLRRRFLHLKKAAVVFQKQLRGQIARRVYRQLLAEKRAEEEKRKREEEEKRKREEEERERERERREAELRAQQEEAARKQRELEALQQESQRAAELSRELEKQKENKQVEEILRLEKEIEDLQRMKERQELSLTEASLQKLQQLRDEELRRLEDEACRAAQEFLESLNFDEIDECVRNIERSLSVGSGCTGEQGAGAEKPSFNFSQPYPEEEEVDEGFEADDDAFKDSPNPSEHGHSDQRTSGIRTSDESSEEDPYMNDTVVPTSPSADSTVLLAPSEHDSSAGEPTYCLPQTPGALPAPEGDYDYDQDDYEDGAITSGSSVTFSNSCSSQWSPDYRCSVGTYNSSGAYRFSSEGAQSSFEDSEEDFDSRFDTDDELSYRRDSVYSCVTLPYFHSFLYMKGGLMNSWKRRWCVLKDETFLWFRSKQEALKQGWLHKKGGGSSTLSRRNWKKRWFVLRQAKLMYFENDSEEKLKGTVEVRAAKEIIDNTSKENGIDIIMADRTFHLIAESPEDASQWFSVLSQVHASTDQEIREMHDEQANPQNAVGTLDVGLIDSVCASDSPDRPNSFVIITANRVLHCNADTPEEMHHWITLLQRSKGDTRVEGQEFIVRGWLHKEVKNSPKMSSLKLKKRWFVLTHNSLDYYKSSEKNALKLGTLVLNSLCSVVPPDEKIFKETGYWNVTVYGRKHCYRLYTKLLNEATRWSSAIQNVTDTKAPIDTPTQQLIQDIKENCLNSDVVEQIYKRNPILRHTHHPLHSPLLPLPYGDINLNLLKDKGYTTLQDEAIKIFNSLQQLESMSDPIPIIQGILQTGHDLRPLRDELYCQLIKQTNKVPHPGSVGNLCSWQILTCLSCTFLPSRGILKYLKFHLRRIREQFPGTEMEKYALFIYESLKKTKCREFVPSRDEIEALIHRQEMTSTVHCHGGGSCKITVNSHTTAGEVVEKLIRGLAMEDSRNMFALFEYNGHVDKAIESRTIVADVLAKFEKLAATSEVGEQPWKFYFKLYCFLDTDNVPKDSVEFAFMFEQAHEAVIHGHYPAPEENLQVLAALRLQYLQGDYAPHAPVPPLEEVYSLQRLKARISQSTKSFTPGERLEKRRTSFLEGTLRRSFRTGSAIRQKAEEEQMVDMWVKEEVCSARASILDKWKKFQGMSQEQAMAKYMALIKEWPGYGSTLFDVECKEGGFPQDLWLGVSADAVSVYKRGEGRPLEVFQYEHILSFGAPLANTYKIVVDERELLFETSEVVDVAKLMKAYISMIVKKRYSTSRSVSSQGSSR

fold enrichment at filopodial tips relative to MYO10MD [fold] | Binder
3 | mCherry-ANKS4B (ankyrin repeat and sterile a motif domain containing 4B) (natural protein) MSTRYHQAASDSYLELLKEATKRDLNLSDEDGMTPTLLAAYHGNLEALEIICSRGGDPDRCDIWGNTPLHFAASNGHAHCVSFLVNFGANIFALDNDLQTPLDAAASREQNECVALLDKAATAQNIMNPKKVTRLKEQAQKNARRQIKECERLQEKHQNKMAHTYSKEESGTLSSSKGTFSRSSPSNASAPGTFGSLSKGIKDTFKIKFKKNKDTAEQVGKEGRSGQRNVMEVFREEEEDSFSGDFKEKLQLSAEEDGSVHHESILNRPGLGSIVFRRNRISSPEDISDSKREFGFKLPSELLQRQGASEADEGAADEEGEENGLKDDLPWDDDEVEWEEDVVDATPLEVFLLSQHLEEFLPIFKREQIDLEALLLCSDEDLQSIQMQLGPRKKVLNAINRRKQVLQQPGQLVDTSL
3 | mCherry-USH1C (harmonin/Usher syndrome 1C) (natural protein) MDRKVAREFRHKVDFLIENDAEKDYLYDVLRMYHQTMDVAVLVGDLKLVINEPSRLPLFDAIRPLIPLKHQVEYDQLTPRRSRKLKEVRLDRLHPEGLGLSVRGGLEFGCGLFISHLIKGGQADSVGLQVGDEIVRINGYSISSCTHEEVINLIRTKKTVSIKVRHIGLIPVKSSPDEPLTWQYVDQFVSESGGVRGSLGSPGNRENKEKKVFISLVGSRGLGCSISSGPIQKPGIFISHVKPGSLSAEVGLEIGDQIVEVNGVDFSNLDHKEAVNVLKSSRSLTISIVAAAGRELFMTDRERLAEARQRELQRQELLMQKRLAMESNKILQEQQEMERQRRKEIAQKAAEENERYRKEMEQIVEEEEKFKKQWEEDWGSKEQLLLPKTITAEVHPVPLRKPKYDQGVEPELEPADDLDGGTEEQGEQDFRKYEEGFDPYSMFTPEQIMGKDVRLLRIKKEGSLDLALEGGVDSPIGKVVVSAVYERGAAERHGGIVKGDEIMAINGKIVTDYTLAEAEAALQKAWNQGGDWIDLVVAVCPPKEYDDELTFF
